{"source": "paper doi:10.1101/2020.08.24.264606", "about": "(bioRxiv, 2020)", "binders": {"B1": {"name": "GST-NOCIVA (CIP2A 1-545 + 13 aa peptide) (natural protein)", "chain": "not shown"}}, "target": "CIP2A(1-560)-V5 (human, UniProt Q8TCG1-1 1-560)", "assay": "pull-down"}
{"binder": "B1", "values": [{"measurement": "binding result", "result": "binds"}]}
